Results: patent US20190085055A1
pKd: −log10 of the molar value.

Tests used:
[1] = biological target: D3H44 light chain S176V_T178L; experiment: LCCA (SPR), competitor L1 WT
[2] = biological target: D3H44 light chain, wild type; experiment: LCCA (SPR), competitor L2 S176V_T178L
D3H44 light chain S176L [3] = experiment: LCCA (SPR), competitor L1 V133S
D3H44 light chain V133S [4] = experiment: LCCA (SPR), competitor L2 S176L
D3H44 light chain V133S [5] = experiment: LCCA: H1 co-expressed with L1 and L2, SPR read-out of light chain tags; competing chain L2
D3H44 light chain S176L [6] = experiment: LCCA: H1 co-expressed with L1 and L2, SPR read-out of light chain tags; competing chain L1
[7] = biological target: D3H44 light chain L89R_F98W; experiment: LCCA (SPR), competitor L2 F98Y
[8] = biological target: D3H44 light chain L89R_F98W; experiment: LCCA: H1 co-expressed with L1 and L2, SPR read-out of light chain tags; competing chain L2
[9] = biological target: D3H44 light chain L89R_F98W; experiment: LCCA (SPR), competitor L2 WT
D3H44 light chain F98Y = experiment: LCCA (SPR), competitor L1 L89R_F98W
[10] = biological target: D3H44 light chain, wild type; experiment: LCCA (SPR), competitor L1 L89R_F98W
[11] = biological target: D3H44 light chain, wild type; experiment: LCCA: H1 co-expressed with L1 and L2, SPR read-out of light chain tags; competing chain L1
[12] = biological target: D3H44 light chain, wild type; experiment: LCCA (SPR), competitor L2 F98L
D3H44 light chain F98L [13] = experiment: LCCA (SPR), competitor L1 WT
D3H44 light chain F98L [14] = experiment: LCCA (SPR), competitor L2 F98W
D3H44 light chain F98A [15] = experiment: LCCA (SPR), competitor L2 F98W
D3H44 light chain F98W [16] = experiment: LCCA (SPR), competitor L1 F98L
[17] = biological target: D3H44 light chain, wild type; experiment: LCCA (SPR), competitor L1 F98A
D3H44 light chain F98W [18] = experiment: LCCA (SPR), competitor L1 F98A
D3H44 light chain F98A [19] = experiment: LCCA (SPR), competitor L2 WT
D3H44 light chain F98A [20] = experiment: LCCA (SPR), competitor L1 Q38E
D3H44 light chain F98A [21] = experiment: LCCA (SPR), competitor L1 Q38R
D3H44 light chain F98A [22] = experiment: LCCA (SPR), competitor L1 P44W
D3H44 light chain Q38R = experiment: LCCA (SPR), competitor L2 F98A
D3H44 light chain Q38E = experiment: LCCA (SPR), competitor L2 F98A
D3H44 light chain P44W = experiment: LCCA (SPR), competitor L2 F98A
D3H44 light chain F98A [23] = experiment: LCCA (SPR), competitor L1 WT
D3H44 light chain F116A = experiment: LCCA (SPR), competitor L1 WT
D3H44 light chain F98A [24] = experiment: LCCA (SPR), competitor L1 F98W
D3H44 light chain F98W [25] = experiment: LCCA (SPR), competitor L2 F98A
[26] = biological target: tissue factor extracellular domains (human) (UniProt P13726); experiment: SPR, median of repeats
[27] = biological target: tissue factor extracellular domains (human) (UniProt P13726); experiment: SPR, TF immobilised, purified Fab as analyte, 1:1 model

## D3H44 heavy chain (Fab format) S188I
[1]
  H1 L2 of H1 L1:H1 L2 (screen): 41.9
[2]
  H1 L1 of H1 L1:H1 L2 (screen): 61.9

## D3H44 heavy chain (Fab format) S188L_V190Y
D3H44 light chain S176L [3]
  H1 L2 of H1 L1:H1 L2 (screen): 7.72
  H1 L2 of H1 L1:H1 L2 (verification): 12.4
D3H44 light chain V133S [4]
  H1 L1 of H1 L1:H1 L2 (screen): 90
  H1 L1 of H1 L1:H1 L2 (verification): 81.2
D3H44 light chain V133S [5]
  H1 Readout (H1-L1): 83
D3H44 light chain S176L [6]
  H1 Readout (H1-L2): 24

## D3H44 heavy chain (Fab format) V37E_F100D
[7]
  H1 L1 of H1 L1:H1 L2 (screen): 67.8
  H1 L1 of H1 L1:H1 L2 (verification): 76.3
[8]
  H1 Readout (H1-L1): 99
[9]
  H1 L1 of H1 L1:H1 L2 (screen): 98.7
  H1 L1 of H1 L1:H1 L2 (verification): 119
D3H44 light chain F98Y
  H1 L2 of H1 L1:H1 L2 (screen): 24.4
  H1 L2 of H1 L1:H1 L2 (verification): 18.1
[10]
  H1 L2 of H1 L1:H1 L2 (screen): 4.2
  H1 L2 of H1 L1:H1 L2 (verification): 4.5
[11]
  H1 Readout (H1-L2): 10

## D3H44 heavy chain (Fab format) V37I
[12]
  H1 L1 of H1 L1:H1 L2 (screen): 78.5
D3H44 light chain F98L [13]
  H1 L2 of H1 L1:H1 L2 (screen): 7.34
D3H44 light chain F98L [14]
  H2 L1 of H2 L2:H2 L1 (screen): 21.7
D3H44 light chain F98A [15]
  H2 L1 of H2 L2:H2 L1 (screen): 30.9
D3H44 light chain F98W [16]
  H2 L2 of H2 L2:H2 L1 (screen): 65.7
[17]
  H2 L2 of H2 L2:H2 L1 (screen): 72.6
D3H44 light chain F98W [18]
  H2 L2 of H2 L2:H2 L1 (screen): 66.5
D3H44 light chain F98A [19]
  H2 L1 of H2 L2:H2 L1 (screen): 28.7

## D3H44 heavy chain (Fab format) V37W
D3H44 light chain F98A [20]
  H2 L2 of H2 L2:H2 L1 (screen): 65.9
  H2 L2 of H2 L2:H2 L1 (verification): 70.5
D3H44 light chain F98A [15]
  H1 L1 of H1 L1:H1 L2 (screen): 62.4
  H1 L1 of H1 L1:H1 L2 (verification): 61.5
D3H44 light chain F98A [21]
  H2 L2 of H2 L2:H2 L1 (screen): 48.9
  H2 L2 of H2 L2:H2 L1 (verification): 47.8
D3H44 light chain F98A [22]
  H2 L2 of H2 L2:H2 L1 (screen): 83.1
[17]
  H1 L2 of H1 L1:H1 L2 (screen): 28.8
D3H44 light chain F98W [18]
  H1 L2 of H1 L1:H1 L2 (screen): 23.5
  H1 L2 of H1 L1:H1 L2 (verification): 23.4
D3H44 light chain F98A [19]
  H1 L1 of H1 L1:H1 L2 (screen): 64.1
D3H44 light chain Q38R
  H2 L1 of H2 L2:H2 L1 (screen): 26.8
  H2 L1 of H2 L2:H2 L1 (verification): 26.7
D3H44 light chain Q38E
  H2 L1 of H2 L2:H2 L1 (screen): 8.05
  H2 L1 of H2 L2:H2 L1 (verification): 10.3
D3H44 light chain P44W
  H2 L1 of H2 L2:H2 L1 (screen): 9.41

## D3H44 heavy chain (Fab format), wild type
D3H44 light chain F98L [13]
  H1 L2 of H1 L1:H1 L2 (screen): 13.3
D3H44 light chain F98A [23]
  H1 L2 of H1 L1:H1 L2 (screen): 7.5
[1]
  H2 L2 of H2 L2:H2 L1 (screen): 99.4
D3H44 light chain F116A
  H1 L2 of H1 L1:H1 L2 (screen): 26.3
D3H44 light chain F98L [14]
  H2 L1 of H2 L2:H2 L1 (screen): 27.8
  H2 L1 of H2 L2:H2 L1 (verification): 23.6
D3H44 light chain F98W [16]
  H2 L2 of H2 L2:H2 L1 (screen): 74.2
  H2 L2 of H2 L2:H2 L1 (verification): 50.8
D3H44 light chain F98A [24]
  H1 L2 of H1 L1:H1 L2 (screen): 28.7
  H1 L2 of H1 L1:H1 L2 (verification): 28.7
D3H44 light chain F98W [25]
  H1 L1 of H1 L1:H1 L2 (screen): 67.1
  H1 L1 of H1 L1:H1 L2 (verification): 67.1

## Wild-type anti-TF D3H44 Fab
[26]
  pKd: 10.22
[27]
  pKd: 10.28
